Literature values as cited in paper PMC5810417.
Like-named read-outs stand apart in the source and are kept apart here. Blank lines part the entries; values can stand above or below the substance they belong to.

Columns and labels:
[1] = molecular target: Prdx6 (Homo sapiens) (UniProt P30041)
[2] = molecular target: Prdx6 (Homo sapiens) (UniProt P30041); assay: PLA2 activity inhibition
[3] = molecular target: Prdx6 (Homo sapiens) (UniProt P30041); remark: listed apart in the source
[4] = molecular target: Prdx6 (Homo sapiens) (UniProt P30041); remark: listed apart in the source

Kd [1]: < 20 nM
Substance: Prdx6 (from UniProt P30041)

Ki [2]: 130 nM
Substance: SP-A (from UniProt Q8IWL2)

Ki [2]: 65 nM
Substance: p67phox (from UniProt P19878)

Kd [3]: 50 nM
Substance: πGST1-1A and C (from UniProt P09211)

Kd [4]: 100 nM
Substance: πGST1-1B and D (from UniProt P09211)
